The subject of the data set is MS2 coat protein. The data set is described as follows: apparent KD of MS2 coat protein; designed switch direction (-1 OFF switch, 1 ON switch): -1; higher = weaker reporter binding. In outline: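 The reported apparent KD is a per-design median over clusters, from curve fits of normalised cluster fluorescence. Protein titrations used SNAP-549-labelled MS2 coat protein, doubled from 0.7 or 1.5 nM to 3 µM, in Tris-HCl pH 7.5 buffer with KCl, MgCl2, BSA, DTT, tRNA and Tween-20, with no input, 200 uM small-molecule ligand, or an oligonucleotide input. The RNA switches were transcribed on Illumina chips by stalled E. coli RNA polymerase.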

Setting [1] is: Eterna round: R95, input ligand: FMN 200 uM.
[2] abbreviates: Eterna round: R95, input ligand: microRNA oligo, concentration not stated.
The mark [3] stands for this setting: Eterna round: R95, input ligand: none.
The mark [4] stands for this setting: input ligand: microRNA oligo, concentration not stated.

These results are taken from the supplement of paper PMC9170038.

In the case of “AGGAAGCAAGGAUAUACGAGGAGAAGGUGUCCAUCUAAAGGACAUGAGGAUCACCCAUGUAGAAGGUGCGAGAA [JR_Exclu2_Sub049] (puzzle: Exclusion 2)”, the “apparent KD of MS2 coat protein” value turned out to be 49.6 nM under setting [1], 210 nM under setting [2] and 189 nM under setting [3].

Take “UCUUUAGGUGUUAGGAUAUACCUGCGCAAAGUUAGGUAGAAGGGACAUGAGGAUCACCCAUGUGCGUCCACAAU [Eternabot (L1) Solution 29] (Eterna round: R97, puzzle: Brourd's mod of Exclusion 4)”: the “apparent KD of MS2 coat protein” value came out at 30.4 nM (input ligand: FMN 200 uM) and 27.5 nM (input ligand: none).

On to “AUACACUAACGAGGAUAUUGGAAAGGAAGUGUACAAGAAGGCGUCCGUGGAAGGGUGAAACAUGAGGAUCACCCAUGUGAAUAA [Exclusion NG 1] (Eterna round: R96, puzzle: Exclusion NG 1)”, for which the “apparent KD of MS2 coat protein” value turned out to be 519 nM (input ligand: FMN 200 uM), 254 nM under setting [4] and 648 nM (input ligand: none).

For the sequence “UAUUAGCAAGCAAGAUCCUACAUGAGGAUCACCCAUGUGCUCGUCUUAAACGCAGAAUUACUGCGAGCUCGUCUUAU [Winner reversed engineered 25] (Eterna round: R97, puzzle: Sensor, turn-off variant 1)”, the “apparent KD of MS2 coat protein” value is, setting by setting: (input ligand: FMN 200 uM) 579 nM; (input ligand: none) 849 nM.

As for “UACCUGAGGCAAAGCUUUAGGUAAACAUGAGGAUCACCCAUGUAGGAUAUGGUAGGCUUUGCUUACCAGAAGGACAUGUUAAUU [Mat - Exclusion NG 3 - Mod of JL - D33] (Eterna round: R96, puzzle: Exclusion NG 3)”, the “apparent KD of MS2 coat protein” value (input ligand: FMN 200 uM) came to 215 nM, the “apparent KD of MS2 coat protein” value under setting [4] is 41.9 nM and the “apparent KD of MS2 coat protein” value (input ligand: none) was found to be 59.7 nM.

Take “GUCGUGCGGCAGUGCUGUACGAGUACAUGAGGAUCACCCAUGUAGGAUAUGGUUCGUUUUGCGUGCUAGAAGGGCGUGCGUUUU [Excl-NG3-LRO18] (Eterna round: R96, puzzle: Exclusion NG 3)”: the “apparent KD of MS2 coat protein” value runs as follows: (input ligand: FMN 200 uM) 18 nM; under setting [4], 15.8 nM; (input ligand: none) 24.8 nM.

As for “AGUCCACAUGAGGAUCACCCAUGUCAGGAUAUCUGCUGGAAGAGGGCAGAAAGCCAGGAGAGAAGGGACCUGGG [Usarila] (puzzle: Exclusion 1)”, the “apparent KD of MS2 coat protein” value under setting [2] turned out to be 34 nM.

On to “GAUAAGGGAGGAUAUACGGAACGGUUUAUGCUCAGUGAGGCACAUGAGGAUCACCCAUGUAGAAGGCCCGACAG [Gezaerti] (puzzle: Exclusion 2)”, for which the “apparent KD of MS2 coat protein” value under setting [2] was found to be 25.6 nM.

“UCUCGACAUGAGGAUCACCCAUGUCAGGAUAUUGUAUUAGAGGUUUUUUACCUUAUAACAAGAAGGGAUGUGUG [LRO-Excl1-23] (puzzle: Exclusion 1)”: the “apparent KD of MS2 coat protein” value under setting [2] was 23.6 nM.

For “AGUGCGUAUGUGAGGAUAUGCUGGUCCUUGGAUCGGCAGAAGGUACAUGAGGAUCACCCAUGUGGUGUCGUUCU [salish99_Bmod_ex4_104] (puzzle: Brourd's mod of Exclusion 4)”, the “apparent KD of MS2 coat protein” value runs as follows: under setting [1], 94 nM; under setting [2], 409 nM; under setting [3], 261 nM.

As to “UUAUAGGCAGGAUAUACAUGAGGAUCACCCAUGUAAAUUUUUCGUUUAACUUGAAUGUGUAGAAGGGCCAUAUU [Ex3 #57] (Eterna round: R97, puzzle: Exclusion 3)”, the “apparent KD of MS2 coat protein” value (input ligand: FMN 200 uM) was found to be 22.3 nM and the “apparent KD of MS2 coat protein” value (input ligand: none) was 21.6 nM.

Turning to “UACAUGAGGAUCACCCAUGUUUUGUCGUGUAUGGUAUUUAUCUAGGAUAUCAAUUUGGUUAUUUAUGAGAAGGAGAAUAUUAAU [JMF's solution 66] (Eterna round: R96, puzzle: Exclusion NG 3)”, the “apparent KD of MS2 coat protein” value is 48.9 nM (input ligand: FMN 200 uM), 31.6 nM under setting [4] and 37.2 nM (input ligand: none).

On to “UAUGUGUCAGGAUAUUAAUUAGAACAGAAUUUAACAAUAAUUAAGAAGGGACAUGAGGAUCACCCAUGUUCAUC [JR_Ex4_Sub023] (Eterna round: R97, puzzle: Exclusion 4)”, for which the “apparent KD of MS2 coat protein” value (input ligand: FMN 200 uM) was determined as 27.9 nM and the “apparent KD of MS2 coat protein” value (input ligand: none) was 23.3 nM.

Consider “AUCGUGCAGCAAAGCUGUACGAGUACAUGAGGAUCACCCAUGUAGGAUAUGGUACGCAAAGCGUGCUAGAAGGAUAUGAGAUUU [Mat - Exclusion NG 3 - Mod of JL - D100] (Eterna round: R96, puzzle: Exclusion NG 3)”, for which the “apparent KD of MS2 coat protein” value reads like this: (input ligand: FMN 200 uM) 55.4 nM; under setting [4], 27.8 nM; (input ligand: none) 45.2 nM.

For “UUGUUUUUUGAGGAUAUGCGACGUUUUUUCGUCGUAGAAGGCGAUACAUGAGGAUCACCCAUGUUUAUGGGCAU [LRO-Ex6-14] (puzzle: Exclusion 6)”, the “apparent KD of MS2 coat protein” value under setting [2] turned out to be 122 nM.

For “ACUGGUCGAGGAUAUACAUGAGGAUCACCCAUGUGGUCACGUGACUUCGGUCACGAAUGUAGAAGGCGACCAGU [E3/3-A5] (Eterna round: R97, puzzle: Exclusion 3)”, the “apparent KD of MS2 coat protein” value reads like this: (input ligand: FMN 200 uM) 61.4 nM; (input ligand: none) 188 nM.

With “UAAGAGUGAGGAUAUACGUCGCUGGUCUGGAUGGACGCAUGACAUGAGGAUCACCCAUGUAGAAGGCACAAAAC [Enxela Mod 11 - Jieux - Exclusion 2] (Eterna round: R97, puzzle: Exclusion 2)”, the “apparent KD of MS2 coat protein” value runs as follows: (input ligand: FMN 200 uM) 153 nM; (input ligand: none) 35 nM.

In the case of “GAUUAACAUGAGGAUCACCCAUGUGAGGAUAUUGACUUGCUCACUUUCCCAUUAGAGUCGAGAAGGCGCAUCUG [1986#19] (Eterna round: R97, puzzle: Exclusion 1)”, the “apparent KD of MS2 coat protein” value runs as follows: (input ligand: FMN 200 uM) 34.9 nM; (input ligand: none) 60.5 nM.

For “UAUAGACAUGAGGAUCACCCAUGUGAGGAUAUGUACAACAACAAGCCGGAAGCGGAAUACAGAAGGCACAAAUA [JR_Exclusion1_Sub029] (puzzle: Exclusion 1)”, the “apparent KD of MS2 coat protein” value reads like this: under setting [1], 36.8 nM; under setting [2], 35.7 nM; under setting [3], 51.4 nM.

On to “UCGCUGCGAGGAUAUACAUGAGGAUCACCCAUGUGCGGGUCCGGGUCUUCGUCCAUUAGUAGAAGGCGCAGUGA [JL Laongeedie mod 4] (Eterna round: R96, puzzle: Exclusion 3)”, for which the “apparent KD of MS2 coat protein” value (input ligand: FMN 200 uM) stood at 705 nM, the “apparent KD of MS2 coat protein” value under setting [4] was 112 nM and the “apparent KD of MS2 coat protein” value (input ligand: none) worked out at 119 nM.

In the case of “ACCUAACAUGAGGAUCACCCAUGUGAGGAUAUGUACAUCGGCUCGCGAAAGUGACCGAACAGAAGGUACAUGGU [EX1 A.26] (Eterna round: R97, puzzle: Exclusion 1)”, the “apparent KD of MS2 coat protein” value turned out to be 17.8 nM (input ligand: FMN 200 uM) and 19.1 nM (input ligand: none).

For “CAUUAUUAUCGAGGAUAUCCUAUUGAAAUUCUGGGAGAAGGCGGACUCAACAUGAGGAUCACCCAUGUGAGACGGAUGCUAGGG [Ex NG1 #27] (Eterna round: R96, puzzle: Exclusion NG 1)”, under setting [4], the “apparent KD of MS2 coat protein” value stood at 15 nM.

Regarding “GCUGGACAAGGAUAUAUAUGACGUGCUUCGGCACGAAGAUCACAUGAGGAUCACCCAUGUAGAAGGUGUCCAGC [E2/8-C2] (Eterna round: R97, puzzle: Exclusion 2)”, the “apparent KD of MS2 coat protein” value is, setting by setting: (input ligand: FMN 200 uM) 594 nM; (input ligand: none) 91.8 nM.

As for “GUGACACAUGAGGAUCACCCAUGUGAGGAUAUGAUACUAUGUACUUCGGUACAUAGUAUCAGAAGGCACAGUGA [Ex1-3: 7] (puzzle: Exclusion 1)”, the “apparent KD of MS2 coat protein” value under setting [2] was determined as 43.2 nM.

For “AUUGGGUGAGGAUAUCCAUCUGGAUCAGACUAGAUCCUGAUGGAGAAGGCACAUGAGGAUCACCCAUGUGAGUU [Eli 4x 4.34] (Eterna round: R97, puzzle: Exclusion 4)”, the “apparent KD of MS2 coat protein” value turned out to be 108 nM (input ligand: FMN 200 uM) and 95.6 nM (input ligand: none).

As to “UUUUACCGAGGAUAUACAUUUUUUUUAUUAUCCUCAUUAUUACAUGAGGAUCACCCAUGUAGAAGGCGGAUUUU [My Design] (puzzle: Exclusion 2)”, under setting [2], the “apparent KD of MS2 coat protein” value amounted to 56.9 nM.

As to “UUGUUACAUGAGGAUCACCCAUGUGAGGAUAUGGUUCAGUACUGUCAUGUCACGUACUCCAGAAGGCACAUGUU [1st #31] (Eterna round: R97, puzzle: Exclusion 1)”, the “apparent KD of MS2 coat protein” value by setting is: (input ligand: FMN 200 uM) 363 nM; (input ligand: none) 120 nM.

With “GCAUGUUGGUAGGAUAUGCAGCGAAAACCGCUAGUAGAAGGAUUGACAUGAGGAUCACCCAUGUGAACCGAAGG [Esesbece] (Eterna round: R97, puzzle: Exclusion 6)”, the “apparent KD of MS2 coat protein” value (input ligand: FMN 200 uM) came to 139 nM and the “apparent KD of MS2 coat protein” value (input ligand: none) came to 36.6 nM.

With “AAUAAGUGAGGAUAUACGUCUGGACCCGGGAGGGAAAUAAAACAUGAGGAUCACCCAUGUAGAAGGCACAAUAA [Excls2-III] (puzzle: Exclusion 2)”, the “apparent KD of MS2 coat protein” value by setting is: under setting [1], 17.5 nM; under setting [2], 13.5 nM; under setting [3], 16.9 nM.

With “AGCUGUGGCCGAGGAUAUCUAAAACCUCAAAACGAAAUAUAAUCGAACAUGAGGAUCACCCAUGUAGAGAAGGCGGUCUCAGCA [Eli eng2 - 031] (Eterna round: R96, puzzle: Exclusion NG 2)”, the “apparent KD of MS2 coat protein” value under setting [4] worked out at 214 nM.

As for “AUAAUGUAAGGAUAUCAGUCGUACAGCUGCGGCUGUACGACUGAGAAGGUACAUGAGGAUCACCCAUGUGAUCA [E4/8-A3] (Eterna round: R97, puzzle: Exclusion 4)”, the “apparent KD of MS2 coat protein” value was 104 nM (input ligand: FMN 200 uM) and 1380 nM (input ligand: none).

In the case of “UAACAUGUACAAGGAUAUCAGCACGUUUAGUGCUGAGAAGGUGUAACAUGAGGAUCACCCAUGUAGAUCAUUAAUUAAUUAAUU [ENG1/9-B2] (Eterna round: R96, puzzle: Exclusion NG 1)”, the “apparent KD of MS2 coat protein” value (input ligand: FMN 200 uM) was 244 nM, the “apparent KD of MS2 coat protein” value under setting [4] was 120 nM and the “apparent KD of MS2 coat protein” value (input ligand: none) turned out to be 102 nM.

In the case of “CCAGAGUGAGGAUAUGCAUAAAGGUGCUGUCCCGUGGCUUGACAUGAGGAUCACCCAUGUAGAAGGUGCGUUGU [Raonra] (puzzle: Exclusion 2)”, under setting [2], the “apparent KD of MS2 coat protein” value was found to be 38.7 nM.
